Here are results for 2 molecules from article PMC6197226 (2018).

The target of assay [1] is p62 ZZ domain (aa 115-190) (human, UniProt Q13501 115-190). In words: MST.
The target of assay [2] is p62 ZZ domain (aa 120-171) (human, UniProt Q13501 120-171).

B1: REEE peptide (peptide)
peptide: REEE
Take B1: the Kd was 1.9 µM in assay [1] and 5.6 µM in assay [2].

B2: RAEE peptide (peptide)
peptide: RAEE
As to B2, the values for the Kd in assay [1] and in assay [2] were 3.2 µM and 14 µM, respectively.

What is called Kd is the free concentration of one partner at which half of the binding sites on the other are occupied at equilibrium, for simple one-to-one binding.
